# Experiments:
# Test in all cases: Kd (EC50 corrected by depletion factor)
# PINX1 = target: T1, PINX1 (UniProt Q96BK5)
# T1 sequence: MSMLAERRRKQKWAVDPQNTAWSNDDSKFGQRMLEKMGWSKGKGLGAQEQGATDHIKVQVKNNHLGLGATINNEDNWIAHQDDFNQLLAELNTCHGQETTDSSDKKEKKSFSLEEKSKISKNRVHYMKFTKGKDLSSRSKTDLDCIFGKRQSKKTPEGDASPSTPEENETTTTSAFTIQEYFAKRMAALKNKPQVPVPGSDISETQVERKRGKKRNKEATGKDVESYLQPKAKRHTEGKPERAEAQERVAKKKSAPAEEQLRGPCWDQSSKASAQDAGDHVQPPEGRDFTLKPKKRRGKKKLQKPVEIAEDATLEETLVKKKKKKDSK
# Outline: (§1)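 HEK293-FT lysate (2.5 mg protein/well) was treated with free RNA oligos (0 nM to 30 μM) for 1 h at 4°C, then with the same oligos on NHS-Sepharose beads for 30 min at 4°C. Bound proteins were quantified by label-free LC-MS/MS relative to the control. EC50 came from a four-parameter log-logistic fit, and Kd is EC50 times a protein-dependent depletion factor.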
# YTHDC2 = target: T2, YTHDC2 (UniProt Q9H6S0)
# T2 sequence: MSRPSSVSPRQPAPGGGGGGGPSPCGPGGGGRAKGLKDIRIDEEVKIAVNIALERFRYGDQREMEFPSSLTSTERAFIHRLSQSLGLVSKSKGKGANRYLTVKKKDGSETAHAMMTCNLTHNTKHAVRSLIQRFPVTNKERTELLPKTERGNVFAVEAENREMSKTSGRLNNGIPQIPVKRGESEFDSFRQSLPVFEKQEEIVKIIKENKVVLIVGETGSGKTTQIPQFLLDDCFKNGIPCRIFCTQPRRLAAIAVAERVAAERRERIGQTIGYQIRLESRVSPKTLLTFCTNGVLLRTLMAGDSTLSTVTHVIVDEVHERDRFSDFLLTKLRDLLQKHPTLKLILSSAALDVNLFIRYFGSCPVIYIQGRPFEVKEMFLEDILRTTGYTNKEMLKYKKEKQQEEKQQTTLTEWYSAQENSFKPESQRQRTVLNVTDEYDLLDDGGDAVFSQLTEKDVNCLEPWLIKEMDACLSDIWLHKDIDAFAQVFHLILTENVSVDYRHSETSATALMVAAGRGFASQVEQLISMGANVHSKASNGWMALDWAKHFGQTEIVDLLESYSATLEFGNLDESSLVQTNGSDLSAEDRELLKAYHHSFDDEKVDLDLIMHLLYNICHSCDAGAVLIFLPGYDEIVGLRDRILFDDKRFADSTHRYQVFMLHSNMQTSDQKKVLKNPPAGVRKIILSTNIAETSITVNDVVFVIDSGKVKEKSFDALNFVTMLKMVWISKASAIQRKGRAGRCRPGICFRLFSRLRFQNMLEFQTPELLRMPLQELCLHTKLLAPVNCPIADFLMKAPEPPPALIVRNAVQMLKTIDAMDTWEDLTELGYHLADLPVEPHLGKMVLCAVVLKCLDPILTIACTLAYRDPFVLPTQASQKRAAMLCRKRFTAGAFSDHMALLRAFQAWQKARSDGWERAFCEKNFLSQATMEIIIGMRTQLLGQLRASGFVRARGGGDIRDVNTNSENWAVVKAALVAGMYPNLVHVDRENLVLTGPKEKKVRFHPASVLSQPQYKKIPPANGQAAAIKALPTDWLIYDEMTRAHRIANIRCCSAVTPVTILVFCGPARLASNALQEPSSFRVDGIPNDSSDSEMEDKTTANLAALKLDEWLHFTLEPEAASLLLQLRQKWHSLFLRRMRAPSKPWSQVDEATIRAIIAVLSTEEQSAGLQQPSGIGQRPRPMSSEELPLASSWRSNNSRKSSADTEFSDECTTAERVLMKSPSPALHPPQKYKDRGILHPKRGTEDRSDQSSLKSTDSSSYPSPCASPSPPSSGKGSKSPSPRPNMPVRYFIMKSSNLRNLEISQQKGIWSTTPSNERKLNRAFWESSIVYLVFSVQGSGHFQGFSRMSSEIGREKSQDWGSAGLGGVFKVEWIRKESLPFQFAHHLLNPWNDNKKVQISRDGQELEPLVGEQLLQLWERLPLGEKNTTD
# Outline: as §1
# RPS18 = RPS18 (UniProt P62269)
# Outline: as §1
# MEX3C = target: T3, MEX3C (UniProt Q5U5Q3)
# T3 sequence: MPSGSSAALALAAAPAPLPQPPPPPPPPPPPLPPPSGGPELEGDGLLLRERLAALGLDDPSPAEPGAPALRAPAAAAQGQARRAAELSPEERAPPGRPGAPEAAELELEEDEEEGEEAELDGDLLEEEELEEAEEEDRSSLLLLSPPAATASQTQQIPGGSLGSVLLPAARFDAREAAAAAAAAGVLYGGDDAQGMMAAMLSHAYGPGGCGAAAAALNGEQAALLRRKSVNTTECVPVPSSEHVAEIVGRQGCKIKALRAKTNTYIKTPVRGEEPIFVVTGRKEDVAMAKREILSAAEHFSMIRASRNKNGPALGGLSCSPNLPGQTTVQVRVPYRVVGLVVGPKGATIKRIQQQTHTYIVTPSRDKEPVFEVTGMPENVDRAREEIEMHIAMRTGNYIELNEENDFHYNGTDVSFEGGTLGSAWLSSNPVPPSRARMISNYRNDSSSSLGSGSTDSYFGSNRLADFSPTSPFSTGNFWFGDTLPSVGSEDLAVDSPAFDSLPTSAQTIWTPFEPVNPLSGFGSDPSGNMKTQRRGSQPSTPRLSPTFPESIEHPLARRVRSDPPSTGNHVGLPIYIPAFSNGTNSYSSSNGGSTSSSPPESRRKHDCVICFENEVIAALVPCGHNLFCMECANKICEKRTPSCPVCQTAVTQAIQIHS
# Outline: as §1
# MRPS27 = MRPS27 (UniProt Q92552)
# Outline: as §1
sequence,measurement,setting,value
AAUAAA,Kd,PINX1,360 nM
CUGUCCU,Kd,YTHDC2,986 nM
same,Kd,RPS18,42.6 nM
UAUUUAU,Kd,MEX3C,339 nM
same,Kd,MRPS27,49.8 nM
